Substitutions are numbered along the chain they refer to. Names and notes keep the numbering of the source.
B1: variant 18346, monovalent anti-CD3 scFv-heterodimeric Fc (VL hC3E-1 wildtype, VH hC3E-1 wildtype) (Fc fusion)
scFv: EVQLVESGGGLVQPGGSLRLSCAASGVTFNYYGMSWIRQAPGKGLEWVASITNSGGRIYYPDSVKGRFTISRENTQKTLYLQMNSLRAEDTAVYYCTLDGRDGWVAYWGQGTLVTVSSGGGGSGGGGSGGGGSNFMLTQPHSVSESPGKTVTISCKRNTGNIGSNYVNWYQQHEGSSPTTIIYRDDKRPDGVSDRFSGSIDRSSKSASLTISNLKTEDEADYFCQSYSSGFIFGGGTKLTVL
notes: scFv order VH-(GGGGS)3-VL on Fc chain A; chain B is Fc only; also called v18346; parental construct v18346; not shown: Fc-only chain B is also left out
B2: variant 21828, monovalent anti-CD3 scFv-heterodimeric Fc (VL hC3E-1 (D52N), VH hC3E-1(N53S_D102E)) (Fc fusion)
scFv: B1 scFv with N53S, D102E, D185N
notes: scFv order VH-(GGGGS)3-VL on Fc chain A; chain B is Fc only; also called v21828; not shown: Fc-only chain B is also left out
B3: variant 21826, monovalent anti-CD3 scFv-heterodimeric Fc (VL hC3E-1 (D52N), VH hC3E-1(N53R_D102E)) (Fc fusion)
scFv: B1 scFv with N53R, D102E, D185N
notes: scFv order VH-(GGGGS)3-VL on Fc chain A; chain B is Fc only; also called v21826; not shown: Fc-only chain B is also left out
B4: variant 18596, monovalent anti-CD3 scFv-heterodimeric Fc (VL hC3E-1, VH hC3E-1a D102E) (Fc fusion, not shown: a dimerising Fc or GST; small tags and cut ends)
scFv: B1 scFv with D102E
notes: scFv order VH-(GGGGS)3-VL on Fc chain A; chain B is Fc only; also called v18596
B5: variant 19363, monovalent anti-CD3 scFv-heterodimeric Fc (VL hC3E-1_6L3a (D52N), VH hC3E-1) (Fc fusion, not shown: a dimerising Fc or GST; small tags and cut ends)
scFv: EVQLVESGGGLVQPGGSLRLSCAASGVTFNYYGMSWIRQAPGKGLEWVASITNSGGRIYYPDSVKGRFTISRENTQKTLYLQMNSLRAEDTAVYYCTLDGRDGWVAYWGQGTLVTVSSGGGGSGGGGSGGGGSQFVLTQPPSASGTPGQRVTISCKRNTGNIGSNYVNWYQQLPGTAPKTIIYRNDKRPDGVPDRFSGSIDSSSNSASLAISGLQSEDEADYYCQSYSSGFIFGGGTKLTVL
notes: scFv order VH-(GGGGS)3-VL on Fc chain A; chain B is Fc only; also called v19363
B6: variant 19362, monovalent anti-CD3 scFv-heterodimeric Fc (VL hC3E-1_6L3b (D52N), VH hC3E-1) (Fc fusion, not shown: a dimerising Fc or GST; small tags and cut ends)
scFv: B5 scFv with Q134N, V136M, P141H, A143V, G145E, T146S, Q149K, R150T
notes: scFv order VH-(GGGGS)3-VL on Fc chain A; chain B is Fc only; also called v19362
B7: variant 18343, monovalent anti-CD3 scFv-heterodimeric Fc (VL hC3E-1-1L1, VH hC3E-1) (Fc fusion, not shown: a dimerising Fc or GST; small tags and cut ends)
scFv: EVQLVESGGGLVQPGGSLRLSCAASGVTFNYYGMSWIRQAPGKGLEWVASITNSGGRIYYPDSVKGRFTISRENTQKTLYLQMNSLRAEDTAVYYCTLDGRDGWVAYWGQGTLVTVSSGGGGSGGGGSGGGGSQSVLTQPPSASGTPGQRVTISCKRNTGNIGSNYVNWYQQLPGTAPKLLIYRDDKRPDGVPDRFSGSKSGTSASLAISGLQSEDEADYYCQSYSSGFIFGGGTKLTVL
notes: scFv order VH-(GGGGS)3-VL on Fc chain A; chain B is Fc only; also called v18343
B8: variant 19370, monovalent anti-CD3 scFv-heterodimeric Fc (VL hC3E-1_1L1d, VH hC3E-1) (Fc fusion, not shown: a dimerising Fc or GST; small tags and cut ends)
scFv: B7 scFv with S135V
notes: scFv order VH-(GGGGS)3-VL on Fc chain A; chain B is Fc only; also called v19370
B9: variant 19372, monovalent anti-CD3 scFv-heterodimeric Fc (VL hC3E-1_1L1b, VH hC3E-1) (Fc fusion)
scFv: B7 scFv with S135L
notes: scFv order VH-(GGGGS)3-VL on Fc chain A; chain B is Fc only; also called v19372; not shown: The Fc-only chain B is not tied by number to this variant
B10: variant 21831, monovalent anti-CD3 scFv-heterodimeric Fc (VL hC3E-1_1L1d, VH hC3E-1(N53S)) (Fc fusion)
scFv: B7 scFv with N53S, S135V
notes: scFv order VH-(GGGGS)3-VL on Fc chain A; chain B is Fc only; also called v21831; not shown: Fc-only chain B is also left out
B11: variant 19373, monovalent anti-CD3 scFv-heterodimeric Fc (VL hC3E-1_1L1a, VH hC3E-1) (Fc fusion)
scFv: B7 scFv with S135F
notes: scFv order VH-(GGGGS)3-VL on Fc chain A; chain B is Fc only; also called v19373; not shown: The Fc-only chain B is not tied by number to this variant
B12: variant 19371, monovalent anti-CD3 scFv-heterodimeric Fc (VL hC3E-1_1L1c, VH hC3E-1) (Fc fusion)
scFv: B7 scFv with S135I
notes: scFv order VH-(GGGGS)3-VL on Fc chain A; chain B is Fc only; also called v19371; not shown: The Fc-only chain B is not tied by number to this variant
B13: variant 21829, monovalent anti-CD3 scFv-heterodimeric Fc (VL hC3E-1_1L1d, VH hC3E-1(N53R)) (Fc fusion)
scFv: B7 scFv with N53R, S135V
notes: scFv order VH-(GGGGS)3-VL on Fc chain A; chain B is Fc only; also called v21829; not shown: Fc-only chain B is also left out
B14: variant 21827, monovalent anti-CD3 scFv-heterodimeric Fc (VL hC3E-1_1L1d, VH hC3E-1(N53S_D102E)) (Fc fusion)
scFv: B7 scFv with N53S, D102E, S135V
notes: scFv order VH-(GGGGS)3-VL on Fc chain A; chain B is Fc only; also called v21827; not shown: Fc-only chain B is also left out
B15: variant 21825, monovalent anti-CD3 scFv-heterodimeric Fc (VL hC3E-1_1L1d, VH hC3E-1(N53R_D102E)) (Fc fusion)
scFv: B7 scFv with N53R, D102E, S135V
notes: scFv order VH-(GGGGS)3-VL on Fc chain A; chain B is Fc only; also called v21825; not shown: Fc-only chain B is also left out

Biological target: T1, human CD3 expressed on T cells (Jurkat cells, human pan T cells/PBMC) (human, UniProt P07766 23-207)
T1 construct: whole, on cells; On T cells CD3 epsilon stands in the CD3 complex with the gamma, delta and zeta chains and the T-cell receptor; only the epsilon chain is written out; also called CD3+ Jurkat cells; human T cells
Test: cell ELISA on CD3+ Jurkat cells
Protocol: Cells were centrifuged and seeded in a 96-well filter plate in 50% complete culture medium/50% Blocking buffer. Equal volumes of 2× anti-CD3 scFv-Fc constructs or controls were added to cells and incubated for 1 hour. The plate was washed 4 times using vacuum filtration. An HRP-conjugated anti-human IgG Fc gamma specific secondary antibody was added to the wells and further incubated for 1 hour. The plate is washed 7 times by vacuum filtration followed by the addition of TMB substrate at room temperature. The reaction was stopped by adding 1 M sulfuric acid and supernatant was transferred into a clear 96-well plate. Absorbance (450 nm) was read on a Spectramax 340PC plate reader with path-check correction. Binding of the different scFv-Fc constructs to Jurkat cells and the apparent binding affinities are shown in FIG. 7 and Table 7, respectively.

T1 sequence (P07766 23-207): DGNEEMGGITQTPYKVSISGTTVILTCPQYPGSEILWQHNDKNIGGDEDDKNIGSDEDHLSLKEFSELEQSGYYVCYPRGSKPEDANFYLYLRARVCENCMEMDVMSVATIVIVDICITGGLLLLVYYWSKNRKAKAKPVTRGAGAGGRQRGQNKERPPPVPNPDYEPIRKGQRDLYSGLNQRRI

In order of rising EC50:
1. B1  0.34 nM
2. B13  0.65 nM
3. B11  0.99 nM
4. B6  1.35 nM
5. B5  1.45 nM
6. B12  1.72 nM
7. B4  2.57 nM
8. B7  2.61 nM
9. B8  3.09 nM
10. B9  3.47 nM
11. B10  3.96 nM
12. B2  ~32.8 nM
13. B3  ~36100 nM

Biological target: T1, human CD3 expressed on T cells (Jurkat …)
Test: flow cytometry on human T cells
Protocol: (§1) Frozen human pan T cells or PBMCs were thawed and incubated with either media or serial dilutions of the anti-CD3 scFv-Fc constructs for one hour at 4° C. Commercially available SP34-2 antibody was used as positive controls while untreated cultures were used as negative controls. Following incubation with the anti-CD3 scFv constructs, the cells were washed and stained with a panel of conjugated antibodies specific for CD4, CD8, and IgG-Fc. The samples were acquired on a flow cytometer and analyzed using FlowJo version 10.1 software.

In order of falling EC50:
1. B4  69.5 nM
2. B14  1.9 nM
3. B3  1.7 nM
4. B2  1.6 nM
5. B10  1 nM
6. B9  0.9 nM
7. B5  0.7 nM
8. B8  0.7 nM
9. B6  ~0.6 nM
10. B12  0.5 nM
11. B13  0.4 nM
12. B1  ~0.3 nM

Biological target: T2, cynomolgus monkey CD3 expressed on T cells (cynomolgus pan T cells/PBMC, HSC-F cell line) (cynomolgus monkey, UniProt Q95LI5 22-198)
T2 construct: whole, on cells; On T cells in the CD3 complex with the other subunits; only the epsilon chain is written out; also called cyno CD3; cyno T cells
Test: flow cytometry on cynomolgus T cells
Protocol: (§2) Frozen Cynomolgus monkey PBMCs were thawed then washed with RPMI-1640 media. Pan T cells were then isolated from the PBMCs using a negative isolation kit (Miltenyi Biotec, San Diego, Calif.) as per the manufacturer's instructions. The pan T cells were incubated in media alone or media containing serial dilutions of the anti-CD3 scFv-Fc constructs for one hour at 4° C. Commercially available SP34-2 antibody was used as positive controls while untreated cultures were used as negative controls. Following incubation with the anti-CD3 scFv constructs, the cells were washed and stained with a panel of conjugated antibodies specific for CD4, CD8, and IgG-Fc. The samples were acquired on a flow cytometer and analyzed using FlowJo version 10.1 software.

T2 sequence (Q95LI5 22-198): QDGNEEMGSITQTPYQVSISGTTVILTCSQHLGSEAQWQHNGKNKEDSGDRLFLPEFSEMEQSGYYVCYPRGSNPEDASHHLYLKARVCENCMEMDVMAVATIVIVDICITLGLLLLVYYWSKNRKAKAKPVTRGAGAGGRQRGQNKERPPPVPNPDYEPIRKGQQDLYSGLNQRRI

In order of falling EC50:
1. B4  172 nM
2. B2  104 nM
3. B10  40.7 nM
4. B14  16.3 nM
5. B9  9.3 nM
6. B5  7.1 nM
7. B15  7 nM
8. B12  3.4 nM
9. B3  2.5 nM
10. B8  2.4 nM
11. B6  1.9 nM
12. B13  1.6 nM
13. B1  1.4 nM

Biological target: T3, Recombinant CD3epsilon/delta Fc fusion protein (Sino Biological) (human, UniProt P07766 23-126; P04234 22-105)
T3 construct: Bought reagent; also called recombinant CD3 fusion protein; human CD3 antigen; not shown: Fc of the bought fusion protein; not described
Test: SPR (ProteOn XPR36), Equilibrium Fit, mean of three runs
Protocol: (§3) All SPR binding experiments were carried out using a BioRad ProteOn XPR36 instrument (Bio-Rad Laboratories, Hercules, Calif.) at 25° C. with 10 mM HEPES, 150 mM NaCl, 3.4 mM EDTA, and 0.05% Tween 20 at pH 7.4. Recombinant CD3epsilon/delta Fc fusion protein (Sino Biological, Wayne, Pa.) was captured on anti-Fc capture sensorchips. Purified antibodies were indirectly captured on the sensorchip by binding the recombinant CD3 fusion protein when injected at 25 μL/min for 240s (resulting in approx. 500 RUs) following a buffer injection to establish a stable baseline. Resultant KD values were determined from binding isotherms using the Equilibrium Fit model with reported values as the mean of three independent runs.

T3 sequence (P07766 23-126, stated change not applied, chain 1 of 2): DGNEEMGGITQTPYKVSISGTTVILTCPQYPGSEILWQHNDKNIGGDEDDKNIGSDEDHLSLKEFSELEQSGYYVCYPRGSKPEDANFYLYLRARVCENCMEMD
T3 sequence (P04234 22-105, stated change not applied, chain 2 of 2): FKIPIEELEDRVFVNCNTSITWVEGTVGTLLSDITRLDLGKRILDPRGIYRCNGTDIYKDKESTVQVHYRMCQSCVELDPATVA

In order of falling Kd:
1. B7  30 nM
2. B10  22.9 nM
3. B4  9 nM
4. B12  7.1 nM
5. B8  6.8 nM
6. B5  6.6 nM
7. B9  3.1 nM
8. B13  3.06 nM
9. B6  3 nM
10. B11  3 nM
11. B1  0.26 nM

Biological target: T1, human CD3 expressed on T cells (Jurkat …)
Test: flow cytometry on human T cells gated CD4+, detection with anti-IgG-Fc, geo MFI
Protocol: as §1

B10 was tested, and the “EC50 (read off the curve)” value was ~1 µg/mL.

Biological target: T2, cynomolgus monkey CD3 expressed on T …
Test: flow cytometry on cynomolgus pan T cells gated CD4+, detection with anti-IgG-Fc, geo MFI
Protocol: as §2

In order of rising “EC50 (read off the curve)” value:
1. B1  ~1 µg/mL
2. B6  ~2 µg/mL

Biological target: T3, Recombinant CD3epsilon/delta Fc fusion …
Test: SPR (ProteOn XPR36), CD3epsilon/delta Fc fusion captured on anti-Fc chip, variant injected for 240 s; kinetic constants printed above the sensorgrams
Protocol: as §3

In order of rising Kd:
1. B1  0.117 nM
2. B6  3.03 nM
3. B13  3.12 nM
4. B5  6.62 nM
5. B10  23 nM

In order of rising koff:
1. B1  0.000163 s⁻¹
2. B6  0.00242 s⁻¹
3. B13  0.00382 s⁻¹
4. B5  0.00383 s⁻¹
5. B10  0.0225 s⁻¹

In order of falling kon:
1. B1  1.39e+06 M⁻¹ s⁻¹
2. B13  1.22e+06 M⁻¹ s⁻¹
3. B10  977000 M⁻¹ s⁻¹
4. B6  798000 M⁻¹ s⁻¹
5. B5  578000 M⁻¹ s⁻¹

— US20210277118A1 (Daiichi Sankyo, published 2021)
